Measurements taken from publication PMC11267363, “Supramolecular Nanofibers Ameliorate Bleomycin‐Induced Pulmonary Fibrosis by Restoring Autophagy” (Advanced Science, 2024).

Biological target: T1, Recombinant human TRB3 (tribbles homolog 3) (human, UniProt Q96RU7 1-358)
T1 construct: pseudokinase tribbles homolog 3 (TRB3), human, recombinant; as I recall, the catalogue suffix H09B stands for a His and GST tagged protein made in baculovirus-infected insect cells (surmise); also called TRB3 protein; human TRB3 protein; source: bought: Sino Biological (10731-H09B)
T1 sequence (looked up): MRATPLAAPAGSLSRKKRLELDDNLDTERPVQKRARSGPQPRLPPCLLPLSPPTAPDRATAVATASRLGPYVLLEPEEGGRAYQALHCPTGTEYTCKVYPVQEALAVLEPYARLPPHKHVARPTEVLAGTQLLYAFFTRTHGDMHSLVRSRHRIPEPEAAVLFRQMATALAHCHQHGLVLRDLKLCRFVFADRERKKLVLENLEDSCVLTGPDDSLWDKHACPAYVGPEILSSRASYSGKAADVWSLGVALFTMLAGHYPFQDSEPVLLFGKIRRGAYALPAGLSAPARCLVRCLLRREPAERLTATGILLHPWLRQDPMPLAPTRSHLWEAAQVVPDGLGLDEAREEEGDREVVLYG
Assay: MST; Monolith NT.115; Ac-GFFY-A2 or A2 against human TRB3 protein or BSA (negative control); which partner was labelled is not told
Details: both partners purified

- Kd: ~3.21 µM
B1: A2 peptide (TRB3-binding peptide fragment derived from p62) (peptide)
peptide: GGWLTRLLQTK
notes: also called non-self-assembling peptide A2; source: synthetic peptide (SPPS, purified by HPLC)
